Laboratory results reported in patent US20040234530.

Molecular target: C1-esterase inhibitor (human plasma protease C1 inhibitor), purified or in human serum (UniProt P05155)
Sequence (P05155 23-500): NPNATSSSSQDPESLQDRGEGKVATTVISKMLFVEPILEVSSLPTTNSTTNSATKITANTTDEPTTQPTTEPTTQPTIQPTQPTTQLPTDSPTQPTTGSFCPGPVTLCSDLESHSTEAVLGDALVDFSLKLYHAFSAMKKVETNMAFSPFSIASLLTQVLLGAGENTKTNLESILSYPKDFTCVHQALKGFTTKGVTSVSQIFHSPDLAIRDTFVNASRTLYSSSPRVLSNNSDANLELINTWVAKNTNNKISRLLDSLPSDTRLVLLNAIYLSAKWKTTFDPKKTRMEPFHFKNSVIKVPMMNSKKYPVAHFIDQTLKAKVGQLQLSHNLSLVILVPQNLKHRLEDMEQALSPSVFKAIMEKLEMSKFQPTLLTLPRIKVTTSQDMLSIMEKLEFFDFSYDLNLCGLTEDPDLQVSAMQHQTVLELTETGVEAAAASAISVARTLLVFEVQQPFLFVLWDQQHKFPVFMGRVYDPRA

Row | Substance | kallikrein activity (cleavage of chromogenic substrate S-2302) | cleavage of C1-INH (immunoblot)
1 | purified kallikrein (Calbiochem) | ranging from 88.8% (±2.6% SEM) to 10.3% (±1.3% SEM) activity | 
2 | StcE E435D-His (from pTEG1 in BL21(DE3), strain WAM2726) |  | While StcE-His is able to degrade C1-INH, we observed no such cleavage with the mutant protein
